Test results from patent US20260183437A1, “VHH ANTIBODY CONJUGATES WITH HETEROARYL CHELATORS” (ABDERA THERAPEUTICS INC., priority 2022, published 2026).

Columns and labels:
Assay in all cases: ABC (Antibody Binding Capacity) assay, receptor density
Format in all cases: cell-based
H82 = tested on: H82
Experimental: (§1) In order to test efficacy of the immunoconjugate binding with respect to target density receptor density was measured on target positive cell lines. Target density was measured using the ABC (Antibody Binding Capacity) assay. Cancer cells expressing the target of interest, as well as a negative control cell line, were harvested with cell dissociation buffer, seeded at about 5×10^4 cells per well into 96-well V bottom plate (Sarstedt 82.1583.001). Cells were tested for receptor expression using QuantiBRITE PE beads (BD Cat #340495) and a PE-conjugated anti-hu IgG (Biolegend clone HP6017) following the manufacturers' instructions. In brief, VHH-Fc and isotype control antibodies were prepared at suitable saturating concentrations based on previous experiments. Antibody sample dilutions were incubated with the panel of cell lines on ice for 1 hour. Cells were washed twice with 1% FBS in 1×PBS (FACS buffer), centrifuged at 400 G for 4 min. Cells were then incubated with 4 μg/mL mouse PE-conjugated anti-hu and DAPI (1:1000) for 30 minutes on ice. Cells were washed twice with FACS buffer, centrifuged at 400 G for 4 minutes and resuspended in FACS buffer. Fluorescence intensity on the PE channel was measured on the iQue Screener platform, and data were processed with ForeCyt software. The amount of PE signal generated from the different primary antibody was then fit to a standard curve based off of known PE molecules/Quantibrite bead samples to determine the number of antibody-binding sites per cell. Relative antibody binding sites correlate to the number of antigens or receptors on cell surface.

HEK-DLL3 = tested on: HEK-DLL3
Experimental: as §1

SHP-77 = tested on: SHP-77
Experimental: as §1

B1: Rovalpituzumab: control antibody for DLL3 binding (Creative Biolabs #TAB-216CL) (antibody, chains of the INN, looked up, V domains shown)
VH: QVQLVQSGAEVKKPGASVKVSCKASGYTFTNYGMNWVRQAPGQGLEWMGWINTYTGEPTYADDFKGRVTMTTDTSTSTAYMELRSLRSDDTAVYYCARIGDSSPSDYWGQGTLVTVSS
VL: EIVMTQSPATLSVSPGERATLSCKASQSVSNDVVWYQQKPGQAPRLLIYYASNRYTGIPARFSGSGSGTEFTLTISSLQSEDFAVYYCQQDYTSPWTFGQGTKLEIK
With B1 the “Estimated number of epitopes/cell” value (H82) was 936 epitopes/cell, the “Estimated number of epitopes/cell” value (HEK-DLL3) was 1679 epitopes/cell and the “Estimated number of epitopes/cell” value (SHP-77) was 969 epitopes/cell.
